Measured values published in US20230144459A1, “SHEDDING BLOCKING AGENTS WITH INCREASED STABILITY” (BIOND BIOLOGICS LTD., priority 2020, published 2023).

B1: 4A1: VHH clone binding the stalk region of human CD28, SEQ ID NO: 35 (protein)
VHH: QVQLVESGGGLVQAGGSLRLSCAASGSIFSINAMGWYRQAPGKQRERVAAITSGGSTNYADSVKGRFTISRDNAKNTVYLQMNNLEPRDAGVYYCVVDLYGEDYWIWGQGTQVTVSSAAAHHHHHH
B2: 4A4: VHH clone binding the stalk region of human CD28, SEQ ID NO: 34 (protein)
VHH: EVQLVESGGGLVQAGGSLRLSCAASGSLFSINAMAWYRQAPGKQRELVAAITSSGSTNYANSVKGRFTVSRDNAKNTMYLQMNSLKPEDTAVYYCVVDEYGSDYWIWGQGTQVTVSSAAAHHHHHH

Key:
[1] = molecular target: T1, human CD28 stalk region dimeric peptide (Homo sapiens, UniProt P10747); assay: CD28 stalk region binding assay (ELISA), wild-type peptide; conditions: serial dilution ELISA
T1 construct: purchased Genecust Europe (custom synthesis, stated for the tagged peptide); host or cells: synthetic peptide

[2] = molecular target: T2, CD28 shedding in HEK cells overexpressing human CD28 (Homo sapiens, UniProt P10747); assay: HEK spontaneous CD28 shedding assay; type: cell-based; conditions: 48 hr, 3.3-100 μg/mL
T2 construct: HEK293 cells overexpressing human full-length CD28 were analyzed; expressed in transfected cells

[3] = molecular target: T3, CD28 shedding in isolated human CD4 T cells (Homo sapiens, UniProt P10747); assay: CD28 shedding in isolated CD4 T cells activated by PHA and IL2; type: cell-based; conditions: 5 μg/mL PHA, 200 IU/mL IL-2; 0.4-50 μg/mL
T3 construct: endogenous in cells; host or cells: CD4 T cells and PBMCs from fresh blood of healthy donors

CD28 shedding in PBMC = molecular target: T4, CD28 shedding in PBMC (Homo sapiens, UniProt P10747); assay: CD28 shedding in PBMC activated by superantigen (SEB); type: cell-based; conditions: 1 ng/mL SEB; 0.4-50 μg/mL
T4 construct: endogenous in cells; host or cells: CD4 T cells and PBMCs from fresh blood of healthy donors
Protocol: FIG. 9. […] Levels of soluble CD28 were measured in culture media of isolated PBMC stimulated with 1 ng/mL SEB (light grey bar). […] The levels of soluble human CD28 in the supernatant were quantified with standardized sandwich ELISA (R&D system).
Cellular assays evaluating anti shedding activity of VHH—For SEB activation of PBMCs, 0.1×10^6 PBMCs were stimulated with […] SEB (Sigma, Cat. No. S4881) for 5-7 days at 37° C. with/without the indicated concentrations of various treatments in 96 well plates. For PHA activated T cells, 0.1×10^6 CD4 T cells were incubated with the indicated concentration of Phytohemagglutinin (Sigma, Cat. No. L8902) and 200 IU/mL of IL-2 (Proleukine) for 5-7 days at 37° C. with/without the indicated concentrations of various treatments in 96 well plates. For HEK spontaneous CD28 shedding assay, 0.1×10^5 HEK cells were incubated for 48 hours at 37° C. with/without the indicated concentrations of various treatments in 96 well plates.

Molecule | binding to human CD28 stalk region peptide (in words) [1] | inhibition of CD28 shedding, HEK cells overexpressing human CD28 [2] | inhibition of CD28 shedding, CD4 T cells activated by PHA and IL2 [3] | inhibition of CD28 shedding, PBMC activated by SEB (CD28 shedding in PBMC)
B1 | bind specifically |  |  | 
B2 | bind specifically | inhibit CD28 shedding | inhibit CD28 shedding | inhibit CD28 shedding
